From the supplement of paper PMC9876800

Test system: peptide library, one residue held at a place counted from the S/T acceptor
Experiment: relative phosphorylation of the sub-library (ratio to the mean residue at this position); higher = residue favoured
Outline: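 In 384-well plates, purified recombinant kinases (human or orthologue constructs) were incubated for 90 min under kinase-specific conditions with 50 μM biotinylated degenerate peptide sub-libraries and 50 μM ATP spiked with γ-32P-ATP. Each sub-library fixed a single residue at one position around a central Ser/Thr. Relative sub-library phosphorylation, measured by phosphorimaging and densitometry of streptavidin membrane spots, is given as a ratio to the mean residue at that position.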

WNK1, construct: aa171-529, human, sequence (Q9H4A3 171-529, looked up): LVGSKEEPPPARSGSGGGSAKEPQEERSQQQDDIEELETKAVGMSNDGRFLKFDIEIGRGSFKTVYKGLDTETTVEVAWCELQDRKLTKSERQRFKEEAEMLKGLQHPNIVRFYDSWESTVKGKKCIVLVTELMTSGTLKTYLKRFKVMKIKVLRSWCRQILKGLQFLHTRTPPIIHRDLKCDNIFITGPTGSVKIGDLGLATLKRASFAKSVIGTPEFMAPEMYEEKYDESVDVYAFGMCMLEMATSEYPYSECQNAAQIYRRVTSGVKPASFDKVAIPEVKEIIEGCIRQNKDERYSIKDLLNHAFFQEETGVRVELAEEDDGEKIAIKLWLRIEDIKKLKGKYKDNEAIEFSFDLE

WNK1, construct: aa171-529, human (from UniProt Q9H4A3)
relative phosphorylation
Settings	at +1	at +2	at +3	at +4	at -1	at -2	at -3	at -4	at -5
A fixed	0.732	1.03	0.811	0.927	1.25	1.57	0.952	1.02	0.944
D fixed	0.238	1.07	0.679	0.746	0.328	0.241	0.314	0.487	0.493
E fixed	0.257	0.75	0.619	0.759	0.445	0.263	0.371	0.536	0.53
F fixed	1.18	0.759	1.52	1.24	0.802	0.764	0.799	0.86	1.12
G fixed	0.84	0.934	0.828	0.839	1.1	2.18	0.926	0.88	0.867
H fixed	0.762	0.794	1.17	0.888	0.887	1.31	0.979	1	0.932
I fixed	1.17	1.24	0.89	1.13	0.75	0.748	0.85	0.951	0.955
K fixed	1.22	1.19	1.43	1.5	2.19	1.44	2.48	2.01	1.82
L fixed	1.34	0.984	0.958	1.02	0.891	0.641	0.951	1.02	1.22
M fixed	1.82	0.899	0.954	0.952	1.07	0.597	0.855	0.952	0.974
N fixed	0.895	0.665	0.783	0.719	0.719	0.714	0.606	0.872	0.712
P fixed	0.288	0.457	0.582	0.936	0.586	1.25	1.01	0.763	0.819
Q fixed	1.18	0.65	0.734	0.861	1.21	0.954	0.845	0.795	0.698
R fixed	2.01	2.97	1.69	1.37	2.5	2.25	2.63	1.83	1.54
V fixed	0.986	1.21	0.809	0.992	0.971	0.957	0.961	1.06	1.12
W fixed	0.888	0.635	1.23	1.08	0.574	0.462	0.621	0.856	1.11
Y fixed	1.18	0.759	1.31	1.03	0.735	0.669	0.858	1.1	1.15
pThr fixed	0.58	0.863	0.707	0.803	0.61	0.852	0.854	0.882	0.702
pTyr fixed	0.662	0.911	0.849	0.78	0.789	0.573	0.806	0.666	0.637

PRKACA, construct: Full length, human (from UniProt P17612)
relative phosphorylation
Settings	at +1	at +2	at +3	at +4	at -1	at -2	at -3	at -4	at -5
A fixed	0.926	1.32	0.946	0.869	0.966	0.373	0.581	1.11	1.08
D fixed	0.659	1.28	1.04	1.17	0.57	0.148	0.148	0.696	0.581
E fixed	0.547	0.718	0.99	1.26	0.468	0.122	0.159	0.757	0.606
F fixed	1.33	1.06	0.999	0.813	0.713	0.19	0.197	0.637	0.996
G fixed	0.81	1.09	1.06	1.1	1.26	0.308	0.503	1.24	1.19
H fixed	0.909	1.75	1.32	1.13	1.29	0.538	1.14	1.07	1.16
I fixed	1.33	0.697	0.625	0.91	0.334	0.147	0.152	0.606	0.671
K fixed	1.06	0.686	0.888	0.791	1.84	3.87	2.61	1.93	1.86
L fixed	1.41	0.719	0.919	0.885	0.874	0.227	0.152	0.751	0.715
M fixed	1.2	0.772	0.774	0.898	1.07	0.198	0.192	0.837	0.748
N fixed	0.887	1.05	1.11	1.11	1.34	0.299	0.305	0.839	0.894
P fixed	0.293	1.03	1.43	1.52	1.27	0.197	0.63	0.941	0.898
Q fixed	1.03	1.15	1.01	1.07	0.951	0.563	0.644	0.982	0.783
R fixed	1.04	0.818	1.04	0.971	1.76	9.26	8.72	2.43	2.05
V fixed	1.33	0.953	0.696	0.779	0.468	0.155	0.179	0.631	0.744
W fixed	1.27	0.905	1.16	0.999	0.775	0.208	0.324	0.772	1.13
Y fixed	0.967	0.992	1	0.732	1.04	0.199	0.373	0.771	0.892
pThr fixed	0.891	0.743	0.951	1.62	0.312	0.225	0.261	0.625	0.644
pTyr fixed	0.993	1.03	1.14	1.42	0.798	0.214	0.283	0.742	0.703
